The text below walks through data of the RNAGym collection of RNA variant scans (doi:10.1073/pnas.2313332121).

The labels stand for the following.
B1: TPR t1 (parent)
chain: GACCAAUCUGCCCUCAGAGCUCGAGAACAUCUUCGGAUGCAGAGGAGGCAGGCUUCGGUGGCGCGAUAGCGCCAACGUCCUCAACCUCCAAUGCAUCCCACCACAUGAUGAUGCCUGAAGAGCCUUGGUUUUUUG

The variants in this data set derive from B1. Description: polymerase ribozyme fitness, log enrichment relative to wild type (log ratio); higher = more active; in vitro selection for triplet polymerase activity. In short, it runs like this:
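A heterodimeric triplet polymerase ribozyme had each of its subunits mutagenized by PCR into a library, which was transcribed. One round of in vitro selection, done in triplicate, annealed each library with a biotinylated primer, its partner subunit and triplets, then incubated it frozen at −7 °C before gel excision of extended constructs, streptavidin-bead capture and RT-PCR. Fitness is the logarithm of genotype enrichment relative to wild-type enrichment, based on Illumina sequencing of inputs and outputs and inverse-variance-weighted replicate averages. A base-2 logarithm is used, and genotypes were kept only with ≥10 input reads and ≥1 read per output.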
On to GACCAAUCUGCCCUCAGAGCUCGAGAACAUCUUCGGAUGCAGAGGAGGCAGGCUUCGGUAGCGCGAUAGCGCCAACGUCCUCAACCUCCAAUGCAUCCCACCACAUGAUGAUGCAUGAAUAGCCUUGGUUUUUUG [G60A C115A G120U], for which the “polymerase ribozyme fitness (log ratio)” value is -0.811. The figure for GACCAAUCUGCCCUCAGAGCUCGAGAACAUCUUCGGAUGCAGAGGAGGCAGGCUUCGGUAGCGCGAUAGCGCCAACGUCUUCAACCUCUAAUGCAUCCCACCACAUGAUGAUGCCUGAAGAGCCUUGGGUUUUUG [G60A C80U C89U U129G] is -3.44; for GACCAAUCUGCCCUCAGAGCUCGAGAACAUCUUCGGAUGCAGAGGAGGCAGGCUUCGGUAGCGCGAUAGCGCCAACGUCCUAAACCUCCAAUGCAUCCCACCACAUGAUGAUGCCUGAAGAGCCUUGGGUUUUUG [G60A C82A U129G] it is -1.13.

For the variant GACCAAUCUGCCCUCAGAGCUCGAGAACAUCUUCGGAUGCAGAGGAGGCAGGCUUCGGUAGCGCGAUAGCGCCAACGUCGUCAACCUCCAAUGCAUCCCACCACAUGAUGAUGCCUGAAGAGCCUUGGUUUUUUG [G60A C80G], the “polymerase ribozyme fitness (log ratio)” value is -4.53. As for GACCAAUCUGCCCUCAGAGCUCGAGAACAUCUUCGGAUGCAGAGGAGGCAGGCUUCGGUAGCGCGAUAGCGCCAACGUCAUCAACCUCCAAUGCAUCCCACCACAUGAUGAUGCCUGAAGAGCCUUGGUUUUUUG [G60A C80A], the “polymerase ribozyme fitness (log ratio)” value is -3.69.

As for GACCAAUCUGCCCUCAGAGCUCGAGAACAUCUUCGGAUGCAGAGGAGGCAGGCUUCGGUACCGCGAUAGCGCCAACGUCCUCAACCUCCAACGCAUCCCACCACAUGAUGAUACCUGAAGAGCCUUGGUUUUUUG [G60A G61C U92C G113A], the “polymerase ribozyme fitness (log ratio)” value was -3.6. As to GACCAAUCUGCCCUCAGAGCUCGAGAACAUCUUCGGAUGCAGAGGAGGCAGGCUUCGGUAGCGCGAUAGCGCCAACGUCCUCAACCUCCAAUGCAUCUCACCACAUGAUGAUGCCUGAAGAGCCUUGGUUUUUUG [G60A C98U], the “polymerase ribozyme fitness (log ratio)” value was -0.842.

As to GACCAAUCUGCCCUCAGAGCUCGAGAACAUCUUCGGAUGCAGAGGAGGCAGGCUUCGGUAGCGCGAUAGCGCCAACGUUAUCAACCUCCAAUGCAUCCCACCACAUGAUGAUGCCUGAAGGGCCUUGGUUUUUUG [G60A C79U C80A A121G], the “polymerase ribozyme fitness (log ratio)” value is -3.77. As to GACCAAUCUGCCCUCAGAGCUCGAGAACAUCUUCGGAUGCAGAGGAGGCAGGCUUCGGUAGCGCGAUAGCGCCAACGUCCUUAACCUCCAAUGCAUCCCACCACAUGAUGAUGCCUGAAGAGCCUUGGUUAUUUG [G60A C82U U131A], the “polymerase ribozyme fitness (log ratio)” value was -0.161. With GACCAAUCUGCCCUCAGAGCUCGAGAACAUCUUCGGAUGCAGAGGAGGCAGGCUUCGGUAGCGCGAUAGCGCCAACGUCCUCAACCUCCAAUGCAUCCCACCACAUGAUGAUGCCUGAAGAGCUUUGGUUUUUUG [G60A C124U], the “polymerase ribozyme fitness (log ratio)” value was 1.27. Under GACCAAUCUGCCCUCAGAGCUCGAGAACAUCUUCGGAUGCAGAGGAGGCAGGCUUCGGUAGCGCGAUAGCGCCAACGUCCUCAACCUCCAAUGCAUCCCACCACAUGAUGAUGCCUGAAGAGCAUUGGUUUUUUG [G60A C124A] stands 1.81; under GACCAAUCUGCCCUCAGAGCUCGAGAACAUCUUCGGAUGCAGAGGAGGCAGGCUUCGGUAGCUCGAUAGCGCCAACGUCCUCAACCACCAAAGCAUCCCACAACAUGAUGAUGCGUGAAGAGCCUUGUUUUUUUG [G60A G63U U87A U92A C102A C115G G128U], -5.66. The figure for GACCAAUCUGCCCUCAGAGCUCGAGAACAUCUUCGGAUGCAGAGGAGGCAGGCUUCGGUAGCGCGAUAGCGCCAACGUCCUCAACCUCAAAUGCAUCCCACCACAUGAUGAUGCUUGAAGAGCCUUGGUUUUUUG [G60A C89A C115U] is -2.92. As for GACCAAUCUGCCCUCAGAGCUCGAGAACAUCUUCGGAUGCAGAGGAGGCAGGCUUCGGUAGCGCGAUAGCGCCAACGUCCUCAACCUCCAAUGCAUCCCACCAAAUGAUGAUGCCUGAAGAGCCUUGGUUUUUUG [G60A C104A], the “polymerase ribozyme fitness (log ratio)” value was -1.89.

GACCAAUCUGCCCUCAGAGCUCGAGAACAUCUUCGGAUGCAGAGGAGGCAGGCUUCGGUAGCGCGAUAGCGCCAACGUCCUCAAUCUCCAAUGCAUCCCACCACAUGAUGAUGCCUGAAGAGCCUUGGUUUUUUG [G60A C85U]: the “polymerase ribozyme fitness (log ratio)” value was -0.816. On to GACCAAUCUGCCCUCAGAGCUCGAGAACAUCUUCGGAUGCAGAGGAGGCAGGCUUCGGUAGCGCGAUAGCGCCAACGUCCUCAACCUCCAAUGCAUCCCACCACAUGAUGAUGGCUGAAGAGCCUUGGUUUUUUG [G60A C114G], for which the “polymerase ribozyme fitness (log ratio)” value is -2.53. In the case of GACCAAUCUGCCCUCAGAGCUCGAGAACAUCUUCGGAUGCAGAGGAGGCAGGCUUCGGUAGCGCGAUAGCGCCAACGUCCUCAACCUCUAAUGCAUCCCACCACAUGAUGAUGCCUGAAGAGCAUUGGUUUUUUG [G60A C89U C124A], the “polymerase ribozyme fitness (log ratio)” value came out at 0.913.

Consider GACCAAUCUGCCCUCAGAGCUCGAGAACAUCUUCGGAUGCAGAGGAGGCAGGCUUCGGUAGCGCGAUAGCGCCAACGUCCUCAACCUGCAAUGCAUCCCACCACAUGAUGAUGCCUGAACAGCCUUGGUUUUUUG [G60A C88G G120C], for which the “polymerase ribozyme fitness (log ratio)” value is -0.823.

Consider GACCAAUCUGCCCUCAGAGCUCGAGAACAUCUUCGGAUGCAGAGGAGGCAGGCUUCGGUAGCGCGAUAGCGCCAACGUCCUCAACCUCCAAUGCAUCCCACCACAUGAUGAUGCAUAAAGAGCCUUGGUUUUUUG [G60A C115A G117A], for which the “polymerase ribozyme fitness (log ratio)” value is -4.99. For the variant GACCAAUCUGCCCUCAGAGCUCGAGAACAUCUUCGGAUGCAGAGGAGGCAGGCUUCGGUAGCGCGAUAGCGCCAACGUCCUCAACCUCCAAUGCAUACCACCACAUGAUGAUGCCUGAAGAGCCUUGGUUUUUUG [G60A C97A], the “polymerase ribozyme fitness (log ratio)” value is -4.41.

Take GACCAAUCUGCCCUCAGAGCUCGAGAACAUCUUCGGAUGCAGAGGAGGCAGGCUUCGGUAGCGCGAUAGCGCCAACGUCCUCAACCUCCAAUGCAUGCCACCACAUGAUGAUGCCUGAAGAGCCUUGGUUUUUUG [G60A C97G]: the “polymerase ribozyme fitness (log ratio)” value was -4.02.
